Biological target: HDM2 (human double minute 2) protein (human, UniProt Q00987 1-491)
Assay: fluorescence polarisation
Settings: both partners purified

HDM2 (human double minute 2) protein, sequence (Q00987 whole entry): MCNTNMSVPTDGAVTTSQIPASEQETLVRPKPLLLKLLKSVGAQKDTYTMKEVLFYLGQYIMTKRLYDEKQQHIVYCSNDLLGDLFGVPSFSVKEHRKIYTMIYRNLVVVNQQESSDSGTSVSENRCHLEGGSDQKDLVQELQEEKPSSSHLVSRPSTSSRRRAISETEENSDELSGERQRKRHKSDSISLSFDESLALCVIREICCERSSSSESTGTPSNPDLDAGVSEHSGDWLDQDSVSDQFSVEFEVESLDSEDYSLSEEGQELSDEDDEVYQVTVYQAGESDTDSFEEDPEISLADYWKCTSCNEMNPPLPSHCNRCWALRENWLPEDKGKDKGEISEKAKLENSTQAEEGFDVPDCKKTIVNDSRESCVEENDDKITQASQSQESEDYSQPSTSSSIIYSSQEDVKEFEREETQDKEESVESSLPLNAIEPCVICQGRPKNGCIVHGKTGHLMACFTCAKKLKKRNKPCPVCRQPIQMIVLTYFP

B1: stapled HDM2-opt peptide (peptide)
peptide: PCFYDYWQCL
modifications: not fully specified; stapled (the two Cys residues at i and i+7 cross-linked)
notes: source: synthetic peptide
- IC50: 6.9 ± 1.9 µM

Reference: paper PMC9645375 (Chemical Science, 2022)
